In PMC7354485 (2020):

What was measured:
[1] = target: pUL50 (Human cytomegalovirus) (UniProt P16791); assay: competition with pUL50-pUL53 interaction; details: cited from earlier work
[2] = target: pUL53 hook peptide (Human cytomegalovirus) (UniProt P16794); details: cited from earlier work
[3] = target: T1, BFRF1 (Epstein-Barr virus, UniProt P03185); assay: fluorescence polarization
T1 chain: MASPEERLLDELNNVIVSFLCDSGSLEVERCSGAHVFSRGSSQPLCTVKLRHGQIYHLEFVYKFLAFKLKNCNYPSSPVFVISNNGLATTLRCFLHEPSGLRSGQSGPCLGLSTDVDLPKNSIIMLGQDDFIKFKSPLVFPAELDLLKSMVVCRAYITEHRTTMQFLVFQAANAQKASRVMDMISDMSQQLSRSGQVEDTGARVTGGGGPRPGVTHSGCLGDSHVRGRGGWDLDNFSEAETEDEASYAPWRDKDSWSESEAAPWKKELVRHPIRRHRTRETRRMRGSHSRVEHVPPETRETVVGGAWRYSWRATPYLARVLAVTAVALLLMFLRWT

[4] = target: T2, pUL50 (Human cytomegalovirus, UniProt P16791); assay: fluorescence polarization
T2 chain: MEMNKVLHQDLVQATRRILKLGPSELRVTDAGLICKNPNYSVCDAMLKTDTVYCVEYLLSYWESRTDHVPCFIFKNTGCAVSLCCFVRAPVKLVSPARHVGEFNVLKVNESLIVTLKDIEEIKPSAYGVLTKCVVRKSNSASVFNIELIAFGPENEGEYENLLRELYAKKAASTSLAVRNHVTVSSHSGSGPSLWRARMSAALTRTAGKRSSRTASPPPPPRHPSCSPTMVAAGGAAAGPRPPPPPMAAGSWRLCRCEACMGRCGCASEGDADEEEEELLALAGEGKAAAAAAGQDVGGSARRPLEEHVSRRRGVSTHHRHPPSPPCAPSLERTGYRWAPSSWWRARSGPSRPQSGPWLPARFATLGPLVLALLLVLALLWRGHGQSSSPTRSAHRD

[5] = target: T2, pUL50; assay: competition with pUL50-pUL53 interaction

pUL53 hook peptide (Human cytomegalovirus), sequence (P16794 whole entry): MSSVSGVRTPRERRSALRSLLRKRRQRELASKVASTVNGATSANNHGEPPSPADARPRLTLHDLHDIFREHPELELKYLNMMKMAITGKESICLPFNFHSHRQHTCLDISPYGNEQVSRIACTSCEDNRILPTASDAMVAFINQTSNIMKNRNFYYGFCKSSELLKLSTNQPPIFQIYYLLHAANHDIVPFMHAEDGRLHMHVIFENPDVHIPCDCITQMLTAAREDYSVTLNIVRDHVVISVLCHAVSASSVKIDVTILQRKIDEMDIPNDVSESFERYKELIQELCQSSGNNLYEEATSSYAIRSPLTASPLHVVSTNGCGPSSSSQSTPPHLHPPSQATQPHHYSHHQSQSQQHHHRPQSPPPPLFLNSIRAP

Molecule: pUL53 hook peptide
- IC50 [1]: 110 nM

Molecule: pUL50 (from UniProt P16791)
- Kd [2]: 120 nM

Molecule: DRSHFSLRDFFRGISANFELGKDFLREMNTPIH [BFLF2 hook peptide 78-110]
- Kd [3]: 117 nM

Molecule: LTLHDLHDIFREHPELELKYLNMMKMAIT [pUL53 hook peptide 59-87]
- Kd [4]: 120 nM

Molecule: LTLHDLHDIFREHPELELKYLNMMKMAIT [pUL53 hook peptide]
- IC50 [5]: 50 nM
